# Results reported in patent publication US20070098681A1 (published 2007).
# T1: DcR2-IgG (UniProt Q9UBN6 56-211, limits assumed)
# T1 construct: not shown: IgG portion, not described
# T1 sequence (looked up): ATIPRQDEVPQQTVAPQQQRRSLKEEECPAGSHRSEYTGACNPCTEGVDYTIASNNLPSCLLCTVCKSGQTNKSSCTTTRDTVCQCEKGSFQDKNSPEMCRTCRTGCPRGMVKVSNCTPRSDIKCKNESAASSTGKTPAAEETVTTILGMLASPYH
# T2: DcR1 receptor-IgG (UniProt O14798 26-236, limits assumed)
# T2 construct: Receptor-IgG protein captured on Protein A acceptor beads; construct not described; not shown: IgG portion, not described
# T2 sequence (looked up): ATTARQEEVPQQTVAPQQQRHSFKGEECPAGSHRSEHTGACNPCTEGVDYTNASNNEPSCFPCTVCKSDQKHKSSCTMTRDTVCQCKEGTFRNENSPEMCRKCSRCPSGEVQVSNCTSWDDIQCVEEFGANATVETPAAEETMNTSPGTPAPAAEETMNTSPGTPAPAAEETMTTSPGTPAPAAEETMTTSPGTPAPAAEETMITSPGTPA
# How the values were obtained:
# DR5-IgG [1] = biological target: DR5-IgG (human); assay: BIAcore SPR; KD relative to Flag.Apo2L.WT
# DR4-IgG [2] = biological target: T3, DR4-IgG (human); assay: BIAcore SPR; KD relative to Flag.Apo2L.WT
# T3 construct: Mature DR4 ECD (amino acids 1-218); Made in human 293 cells; also called DR4 receptor immunoadhesin
# DR4-IgG [3] = biological target: T3, DR4-IgG; assay: AlphaQuest displacement of biotinylated Apo2L/TRAIL from receptor-IgG; ratio to Flag-Apo2L.WT
# From the text: (§1) This assay produces a signal when a “donor” and “acceptor” bead are brought in close proximity facilitating singlet oxygen-mediated, fluorescence resonance energy transfer. […] The acceptor bead is coated with Staphylococcal Protein A and is used to capture the receptor-IgG protein.
# DcR2-IgG = biological target: T1, DcR2-IgG; assay: as above
# From the text: as §1
# DcR1 receptor-IgG = biological target: T2, DcR1 receptor-IgG; assay: as above
# From the text: as §1
# DR5-IgG [4] = biological target: DR5-IgG (human); assay: as above
# From the text: as §1
# DR5-IgG [5] = biological target: DR5-IgG (human); assay: BIAcore SPR, receptor-IgG immobilised
# Procedure: (§2) Briefly, dissociation constants (Kd) for binding of Apo-2L variants (see Tables II and III) to immobilized receptor immunoadhesins were determined from surface plasmon resonance (SPR) measurements on a Pharmacia BIAcore 3000. DR5-IgG (also referred to as Apo-2-IgG) and DcR2-IgG receptor immunoadhesins were prepared as described in WO98/51793 published November 19, 1998 and WO99/10484 published Mar. 9, 1999, respectively. DR4-IgG was prepared as follows. A mature DR4 ECD sequence (amino acids 1-218; Pan et al., supra) was cloned into a pCMV-1 Flag vector (Kodak) downstream of the Flag signal sequence and fused to the CH1, hinge and Fc region of human immunoglobulin G₁ heavy chain as described previously [Aruffo et al., Cell, 61:1303-1313 (1990)]. The immunoadhesin was expressed by transient transfection into human 293 cells and purified from the cell supernatants by protein A affinity chromatography, as described by Ashkenazi et al., Proc. Natl. Acad. Sci., 88:10535-10539 (1991)]. The receptor immunoadhesin proteins were coupled to the sensor chip surface at a level of 300-500 resonance units using amine coupling chemistry (Pharmacia Biosensor). Sensorgrams were recorded for Apo-2L binding at concentrations ranging from 15.6 nM to 500 nM in 2-fold increments. The kinetics constants were determined by non-linear regression analysis and used to calculate the binding constants.
# (§3) These variants were expressed and purified, the purified proteins were assayed for receptor-binding by BIAcore® and bioactivity on SK-MES lung carcinoma cells, as previously described (see, e.g. Hymowitz et al. (2000) Biochemistry 39, 633-640).
# DR4-IgG [6] = biological target: T3, DR4-IgG; assay: BIAcore SPR, receptor-IgG immobilised
# Procedure: as §2, §3
# DR5-IgG [7] = biological target: T4, DR5-IgG (human); assay: BIAcore SPR; KD relative to Flag.Apo2L.WT
# T4 construct: also called Apo-2-IgG
# DR5-IgG [8] = biological target: T4, DR5-IgG; assay: AlphaQuest displacement of biotinylated Apo2L/TRAIL from receptor-IgG; ratio to Flag-Apo2L.WT
# From the text: as §1
# DR5-IgG [9] = biological target: T4, DR5-IgG; assay: BIAcore SPR, receptor-IgG immobilised
# Procedure: as §2, §3
# DR5-IgG [10] = biological target: DR5-IgG (human); assay: BIAcore SPR, receptor-IgG immobilised; ratio to wild-type Apo2L/TRAIL(114-281)
# Procedure: as §2
# DR4-IgG [11] = biological target: T3, DR4-IgG; assay: as above
# Procedure: as §2
# DR5-IgG [12] = biological target: T4, DR5-IgG; assay: as above
# Procedure: as §2
binder,measurement,setting,value
Flag-Apo2L.DR4-8 (ligand) VRERGPQRVAAHITGTRGRSNTLSSPNSKNEKALGRKINSWESSRSGHSFLSNLHLRNGELVIHEKGFYYIYSQTAFRFSEEIKEVTRNDKQMVQYIYKWTDYPDPILLMKSARNSCWSKDAEYGLYSIYQGGIFELKENDRIFVSVTNEHLIDMDHEASFFGAFLVG,KD ratio (mut/wt),DR5-IgG [1],1100 ratio (mut/wt)
same,KD ratio (mut/wt),DR4-IgG [2],0.2 ratio (mut/wt)
same,IC50 ratio (mutant/wt),DR4-IgG [3],1 ratio (mutant/wt)
same,IC50 ratio (mutant/wt),DcR2-IgG,15 ratio (mutant/wt)
same,IC50 ratio (mutant/wt),DcR1 receptor-IgG,5.5 ratio (mutant/wt)
Flag-Apo2L.DR4-9 (ligand) VRERGPQRVAAHITGTRGRSNTLSSPNSKNEKALGRKINSWESSRSGHSFLSNLHLRNGELVIHEKGFYYIYSQTAFRFSEEIKERTRNDKQMVQYIYKWTDYPDPILLMKSARNSCWSKDAEYGLYSIYQGGIFELKENDRIFVSVTNEHLIDMDHEASFFGAFLVG,KD ratio (mut/wt),DR5-IgG [1],1200 ratio (mut/wt)
same,KD ratio (mut/wt),DR4-IgG [2],4.3 ratio (mut/wt)
same,IC50 ratio (mutant/wt),DR4-IgG [3],1.1 ratio (mutant/wt)
same,IC50 ratio (mutant/wt),DcR2-IgG,18 ratio (mutant/wt)
same,IC50 ratio (mutant/wt),DcR1 receptor-IgG,4 ratio (mutant/wt)
Flag-Apo2L.DR5-1 (ligand) VRERGPQRVAAHITGTRGRSNTLSSPNSKNEKALGRKINSWESSRSGHSFLSNLHLRNGELVIHEKGFYYIYSQTAFKFKEEIKENTKNDKQMVQYIYKYTSYPDPILLMKSARNSCWSKDAEYGLYSIYQGGIFELKENDRIFVSVTNEALIDMDHEASFFGAFLVG,KD ratio (mut/wt),DR5-IgG [1],2.2 ratio (mut/wt)
same,KD ratio (mut/wt),DR4-IgG [2],11 ratio (mut/wt)
same,IC50 ratio (mutant/wt),DR5-IgG [4],2.4 ratio (mutant/wt)
same,IC50 ratio (mutant/wt),DcR2-IgG,32 ratio (mutant/wt)
Flag-Apo2L.DR5-2 (ligand) VRERGPQRVAAHITGTRGRSNTLSSPNSKNEKALGRKINSWESSRSGHSFLSNLHLRNGELVIHEKGFYYIYSQTAFKFKEEIKENTKNDKQMVQYIYKYTSYPDPILLMKSARNSCWSKDAEYGLYSIYQGGIFELKENDRIFVSVTNEHLIDMDHEASFFGAFLVG,KD ratio (mut/wt),DR5-IgG [1],1.9 ratio (mut/wt)
same,KD ratio (mut/wt),DR4-IgG [2],11 ratio (mut/wt)
same,IC50 ratio (mutant/wt),DR5-IgG [4],2.8 ratio (mutant/wt)
same,IC50 ratio (mutant/wt),DcR2-IgG,5 ratio (mutant/wt)
Apo2L.DR5-8B (ligand) VRERGPQRVAAHITGTRGRSNTLSSPNSKNEKALGRKINSWESSRSGHSFLSNLHLRNGELVIHEKGFYYIYSQTQFKFREEIKENTKNDKQMVQYIYKYTSYPDPILLMKSARNSCWSKDAEYGLYSIYQGGIFELKENDRIFVSVTNEHLIDMDHEASFFGAFLVG,DR5-binding (ratio relative to wild-type Apo2L),DR5-IgG [5],0.6 ratio relative to wild-type Apo2L
same,DR4-binding (ratio relative to wild-type Apo2L),DR4-IgG [6],2.5 ratio relative to wild-type Apo2L
Apo2L.DR5-8C (ligand) VRERGPQRVAAHITGTRGRSNTLSSPNSKNEKALGRKINSWESSRSGHSFLSNLHLRNGELVIHEKGFYYIYSQTQFKFREEIKENTKNDKQMVQYIYKYTSYPDPILLMKSARNSCWSKDAEYGLYSIYQGGIFELKENDRIFVSVTNEHLLDMDHEASFFGAFLVG,DR5-binding (ratio relative to wild-type Apo2L),DR5-IgG [5],0.6 ratio relative to wild-type Apo2L
same,DR4-binding (ratio relative to wild-type Apo2L),DR4-IgG [6],5.5 ratio relative to wild-type Apo2L
"Flag-Apo2L.DR5-8 (ligand, not shown: small tags and cut ends, N-terminal Flag epitope tag (pFLAG-MAC) is not written because its letters are not given) VRERGPQRVAAHITGTRGRSNTLSSPNSKNEKALGRKINSWESSRSGHSFLSNLHLRNGELVIHEKGFYYIYSQTQFKFREEIKENTKNDKQMVQYIYKYTSYPDPILLMKSARNSCWSKDAEYGLYSIYQGGIFELKENDRIFVSVTNERLLQMDHEASFFGAFLVG",KD ratio (mut/wt),DR5-IgG [7],0.8 ratio (mut/wt)
same,IC50 ratio (mutant/wt),DR5-IgG [8],0.7 ratio (mutant/wt)
Flag-Apo2L.DR5-21 (ligand) VRERGPQRVAAHITGTRGRSNTLSSPNSKNEKALGRKINSWESSRSGHSFLSNLHLRNGELVIHEKGFYYIYSQTAFKFKEEIKENTKNDKQMVQYIYKYTSYPDPILLMKSARNSCWSKDAEYGLYSIYQGGIFELKENDRIFVSVTNEDLLNMEHEASFFGAFLVG,IC50 ratio (mutant/wt),DcR2-IgG,9.4 ratio (mutant/wt)
"Apo2L.DR5-8 (ligand, also called Apo2L/TRAIL.DR5-8) VRERGPQRVAAHITGTRGRSNTLSSPNSKNEKALGRKINSWESSRSGHSFLSNLHLRNGELVIHEKGFYYIYSQTQFKFREEIKENTKNDKQMVQYIYKYTSYPDPILLMKSARNSCWSKDAEYGLYSIYQGGIFELKENDRIFVSVTNERLLQMDHEASFFGAFLVG",DR4-binding (ratio relative to wild-type Apo2L),DR4-IgG [6],> 25 ratio relative to wild-type Apo2L
same,DR5-binding (ratio relative to wild-type Apo2L),DR5-IgG [9],0.6 ratio relative to wild-type Apo2L
Apo2L/TRAIL(114-281) mutant DR5-4 (ligand) VRERGPQRVAAHITGTRGRSNTLSSPNSKNEKALGRKINSWESSRSGHSFLSNLHLRNGELVIHEKGFYYIYSQTAFRFREEIKENTKNDKQMVQYIYKYTSYPDPILLMKSARNSCWSKDAEYGLYSIYQGGIFELKENDRIFVSVTNEQLLDMNHEASFFGAFLVG,KD ratio (mutant/wt),DR5-IgG [10],1.3 ratio (mutant/wt)
same,KD ratio (mutant/wt),DR4-IgG [11],3.1 ratio (mutant/wt)
Apo2L/TRAIL(114-281) mutant DR5-5 (ligand) VRERGPQRVAAHITGTRGRSNTLSSPNSKNEKALGRKINSWESSRSGHSFLSNLHLRNGELVIHEKGFYYIYSQTSFRFTEEIKENTKNDKQMVQYIYKYTSYPDPILLMKSARNSCWSKDAEYGLYSIYQGGIFELKENDRIFVSVTNEGLLDMNHEASFFGAFLVG,KD ratio (mutant/wt),DR5-IgG [10],2.5 ratio (mutant/wt)
same,KD ratio (mutant/wt),DR4-IgG [11],12.4 ratio (mutant/wt)
Apo2L/TRAIL(114-281) mutant DR5-11 (ligand) VRERGPQRVAAHITGTRGRSNTLSSPNSKNEKALGRKINSWESSRSGHSFLSNLHLRNGELVIHEKGFYYIYSQTAFRFKEEIKENTKNDKQMVQYIYKYTSYPDPILLMKSARNSCWSKDAEYGLYSIYQGGIFELKENDRIFVSVTNEGLVDMSHEASFFGAFLVG,KD ratio (mutant/wt),DR5-IgG [10],2.2 ratio (mutant/wt)
same,KD ratio (mutant/wt),DR4-IgG [11],5 ratio (mutant/wt)
"Apo2L/TRAIL(114-281) mutant DR5-23 (ligand, Untagged, from pAPOK5.0, purified from E. coli) VRERGPQRVAAHITGTRGRSNTLSSPNSKNEKALGRKINSWESSRSGHSFLSNLHLRNGELVIHEKGFYYIYSQTAFKFREEIKENTKNDKQMVQYIYKYTSYPDPILLMKSARNSCWSKDAEYGLYSIYQGGIFELKENDRIFVSVTNESLLDMEHEASFFGAFLVG",KD ratio (mutant/wt),DR4-IgG [11],105 ratio (mutant/wt)
same,KD ratio (mutant/wt),DR5-IgG [12],2.4 ratio (mutant/wt)
